The text below walks through data of paper PMC9205196.

In this experiment the target is Recombinant human FGF2 (fibroblast growth factor-2), biotinylated (human). In words: AlphaScreen or HTRF.

B1: mSDC1: commercial glycosylated, mammalian expressed recombinant mouse SDC1 ectodomain (domain or fragment)
chain: QIVAVNVPPEDQDGSGDDSDNFSGSGTGALPDTLSRQTPSTWKDVWLLTATPTAPEPTSSNTETAFTSVLPAGEKPEEGEPVLHVEAEPGFTARDKEKEVTTRPRETVQLPITQRASTVRVTTAQAAVTSHPHGGMQPGLHETSAPTAPGQPDHQPPRVEGGGTSVIKEVVEDGTANQLPAGEGSGEQDFTFETSGENTAVAAVEPGLRNQPPVDEGATGASQSLLDRKEVLG
modifications: native GAG chains from the mammalian host (CS predominant over HS by the paper's disaccharide analysis)
A word on the EC50: it is the concentration giving half of the maximal effect. As to B1, the EC50 amounted to 7 nM.
